Data as given in the DeepSol protein solubility set.

Assay: soluble on expression in E. coli; label from the status in PepcDB or PDB records

Sequence	soluble on expression in E. coli
MPSVFEAKGLPSLGPPVSNWGTNQPGTGVARNTRREKLGLWSAVALQQHFTATGGRGGLPLPLSSSALPSQEDRGTAAALGDNAGFSSGAVSSDLRSHLGPAPSLAGRLHKPTLAQRMGLVPGPTPPPSADDWRVITHRALQREHRHARDAGSPGANPSICPICQMSYSTNCDEGQVILSCSHVFHARCFRSFERYVRAQQRADALRIGEVSAPLACPVCRTQSYYKRIFYEGKAVAQRAAIVKVQAAVRGLLARRAYIKIKLQNNPEFRTRYVQERLARLSAAWQTFCAEQEQRRAGLQTALTVQQEMARAAFLSEEAWAEIWRKAVHGPSTSSEPGSSAAPSTAGASVQCPICLELIHCSQCPGTGAAASHAGGVRRLTGKDAVAAMWAAYEARKVAKRLPSVEPKAARASAGALVRSAVKGAAQRKTGNSLTPMPGAVASVRDGKVASSRAPEHRAGRQKGFAQPTAAAPWPEHANAFAALSSAPGVDAVGAHEAAVVLPQSGILLSCGHCFHAACIDCYERFHERRCLDMVEQDGGAVVAFPSRCPVCRSGYAKHPM	not soluble
MNSIVNGLYTFMSTTVVPAVTEQAANLVGGASALAEGATQALTQISQTALEWGSGSEDATASSEVFSWEQQGAAAASSDLQEDKKETTEDVHQEAIGASSPNTSIEWEVIHENPDETGPIRHNQFEMVQNNYEWMKNSK	soluble
MGFQLRGTGTQELSIKELDLSARDAYGTTIKMLKQQLESSGVRVHAGAPYKLVLLSEENSQRTLSYTGGGNSAEYEIGTTLRYEILTHDNLHLLDDKLEVQKVFLHDGNNITGSDQESSETRKEMRRDLIQRMLIRLQLLTPEQLAQLQATAEAKAKAEADALEAARKAEAETPQQSPMELPNQLEHHHHHH	not soluble
GAMVVSPAGADRRIPTWASRVVSGLARDRPVVVTKEDLTQRLTEAGCGRDPDSAIRELRRIGWLVQLPVKGTWAFIPPGEAAISDPYLPLRSWLARDQNAGFMLAGASAAWHLGYLDRQPDGRIPIWLPPAKRLPDGLASYVSVVRIPWNAADTALLAPRPALLVRRRLDLVAWATGLPALGPEALLVQIATRPASFGPWADLVPHLDDLVADCSDERLERLLSGRPTSAWQRASYLLDSGGEPARGQALLAKRHTEVMPVTRFTTAHSRDRGESVWAPEYQLVDELVVPLLRVIGKA	soluble
VPGTLLPRLPSEPGMTLLTIRIEKIGLKDAGQCIDPYITVSVKDLNGIDLTPVQDTPVASRKEDTYVHFNVDIELQKHVEKLTKGAAIFFEFKHYKPKKRFTSTKCFAFMEMDEIKPGPIVIELYKKPTDFKRKKLQLLTKKPLYLHLHQSLHKE	soluble
MGSDKIHHHHHHRGDKPVVWNHQDRRFEVIQQKKQRQRLDSYRRIVIDTTAPVTIRQGDTRQVTLHNFSSANNRLRARVSQGTLTVTGGSTTMNYVLGFGSDGGGINFSSNGDKRGVVITVPKTQRLDSIISKREGGELSLKKMTVKQISVKSTDDVSFNDVRVTKTLAVDTTAGDISGKQVKADRVDLTAEEGDVSLTQSHFKAVNNRVISGDGDVRLATTQLGGGHVVASDGDIQLHDNRLMGTLKATATDGDISARIAPAAGAKVTTTDSDDEIHVVGHSRSSGYWLRRAASAQYRLSTDDGDITVTQ	not soluble
GQEPENQTLETILNRKSVRKYKDRPVEKEKIDKLIRAGMAAPSSRDRRPWEFIIVTDRKALDTMAEGLPFARMLKETRQAIVVCGDTIKSSNAWFLDCSAASQNLLLAAESMGLGAVWTAVYPYPDRIEIVRKELRLPDHIMPLNVIPVGYPMQKETPKNKYNVQQIHHNGW	soluble
MTSELKNNEEDYNSSSDEDYDPTKDTDFDPKDEIDDQEECEDGIDEEVEHLKNEKQSDDHTSEKANSTEGSVDVDAIFAELTGLAPKPVVNDTSSKNIPKTEERVYPKSAASASNESTNQKVYPKKTETAGTSSESSIVPGKKRVGLLDAAKSLSKRSKISVLEKSDRDWKDFTTQNNLKEDLESHNRGKGGYLNKMDFLNRADNRQFEKERAFRATARKDTGQ	not soluble
MGSSHHHHHHMTYEYILVRYGEMTTKGKNRSKFVSTLKDNVKFKLKKFPNIKIDATHDRMYIQLNGEDHEAVSERLKDVFGIHKFNLAMKVPSELEDIKKGALAAFLQVKGDVKTFKITVHRSYKHFPMRTMELLPEIGGHILENTEDITVDVHNPDVNVRVEIRSGYSYIMCDERMGAGGLPVGVGGKVMVLLSGGIDSPVAAYLTMKRGVSVEAVHFHSPPFTSERAKQKVIDLAQELTKYCKRVTLHLVPFTEVQKTINKEIPSSYSMTVMRRMMMRITERIAEERNALAITTGESLGQVASQTLDSMHTINEVTNYPVIRPLITMDKLEIIKIAEEIGTYDISIRPYEDCCTVFTPASPATKPKREKANRFEAKYDFTPLIDEAVANKETMVLQTVEVVAEEEKFEELF	soluble
MKLYQHIETLWDYMQLKQDLKPADCLFVMCSNDVRVAEHAAALYHQKLAPLIVFSGGEGRFTDGLFEKSEAETFADIARLAGVPSDAILVETRSTNSGENVRFTEQLLKEKGIQCESIILVQKPFMERRAIATFEKQWQSPYSQVQVSSTAHPFFEYINEDMPLMMVLEALMEDFSRVKSYPEKGFQTKQDIPNQVDSSYQVLLERFGFDLVLEHHHHHH	not soluble
DKMTIEVPVLTFVPVQVSAELENRGCWVKFFDKKNFQGDSLFLSGPATLPRLIGPFGYDWENKVRSVKVGPRANLTIFDNHNYRDEDKFLDAGANVANLSKEMGFFDNFRSMVLNCI	soluble
MPGTLSFPSDAFPAYPALEIDQPDGWVALAGVGLPLALAAEVPSGQFRPNVLVTVQRFGVGHTVADSRSAVNKSLKALPRFTQTLREDSIEMLGSPGMRVEGYFSDGKGGTMVQALRMCVVEAGPVFDVVQITGTCSGPQTEAFFGQIREIQDTLRLAG	not soluble
LYRKGGVYVVIGGAGYIGEAWSEYMIRRYQAQIVWIGRSQLNAAIQSKIDRLSALGPEPFYIAADAADKHSLQQAYEQVKKRHPHIHGIVHSAMVLFEQSLEKMKPEEFTAGLAAKIDVSIRMAQVFRQENVDFVLFFSSLVAHIKNVKQSHYASGCTFADAFAHQLSQSWA	not soluble
MGSDKIHHHHHHMTASLLTFAKGGVHPPESKEITEHLAIEKMPLPAQVEIPLLQHFGAPCQPLVNKKDRVEEGDLIGQVQGLGANVHASITGTVTNVGTSIGPTSLNIPSVTIDRDTEAPDKIYTPSDWRGLSPQELLQKIKDGGIVGIGGAGFPAHVKLSPPPDAKVDTLVLNGAECEPYLTCDHRVMLEKPEEVVEGAKILLHVLGIKDCYIGVESNKNDAIDALRKTIEQQKLDGVKIQVSPLKVKYPQGSEKQLIESTTGRKVPGGGLPFDVGVIVQNVGTAKAVFDAVVLNKPLYEKVITISGRGISRPANLQVRIGTRIRDIVEYLGGTKADLAKIVMGGPMMGFAVSSLDIPVTKTCSGILFLTRDEIDEQPYGPCIRCGWCVEACPMGLSPNEIGLYVEAGRAADTAPFGVFDCFECGSCAFVCPAKRPLVQFIRLAKQKARK	not soluble
MPRVNIGPDNNAQIEITTLQSQSKSRKLKKIKMASGSERVVVVGVDDSAHSYHALETALDLFFIPFKANPRFKLVVLHARPTATFFLGVAGPGTVDIIPMVEEDLNKTADLVKKKCAEVCSAKSVEISSLEVIEGDPRNIMLEAVERHHA	soluble
MDVFLMIRRHKTTIFTDAKESSTVFELKRIVEGILKRPPDEQRLYKDDQLLDDGKTLGECGFTSQTARPQAPATVGLAFRADDTFEALCIEPFSSPPELPDVMKPQDSGSSANEQAVQ	soluble
MHKSIAVFEVEGGNDKQFNGHRKDTLPIVDAIKEKGWHAEVVFYRPEWSEGLFEYVSQNFDGYISRVNPGNIPGGEKGYFDLLTKLSEAGLVGMSTPAEMMAYGAKDALVKLNDTDLVPSDTAAYYDVETFHNTFPTSLSYGERVLKQNRGSTGSGIWRVQLEDKELAASVAPGTALPLNTKLRCTEAVDNHTEIRELGEFMDFCDQYIVGDNGMLVDMRFMPRIVEGEIRILMVGPHPVFVVHKKPAAGGDNFSATLFSGAKYTYDKPEAWQELVDMFAAARPVIAEKLGGDNIPLIWTADFMLADGENGEDTYVLGEINCSCVGFTSELDMGIQELVAQEAVERVEKKHA	not soluble
MSDRKPVRGRHQARKRAVALLFEAEVRGISAAEVVDTRAALAEAKPDIARLHPYTAAVARGVSEHAAHIDDLITAHLRGWTLDRLPAVDRAILRVSVWELLHAADVPEPVVVDEAVQLAKELSTDDSPGFVNGVLGQVMLVTPQLRAAAQAVRGGA	soluble
MPVIKDAVCSLCGSLCDDITVTVEDNKITKIENACILGHSKFVGMFEHDRIETPMVRKDGELVPVSYEEAIEAAAKILVNSRRTLSYGWCSTSCEAVSGAIQLAEETGSIIDSTANVCHGPTALAAQEKGSPSASLGEIKNRADVIVFWGCNPVHAHPRHMSRYSSFSKGFFTEKGRKGRKMVVIDVRKTDTAKIADKYVEIEQGSDLLLVTALRSIVNGHEDVVPETVAGVPKAEVLELAETLKNAKFTCIFFGMGVTQSRSKYKNGDAVSSLISDLNQHTKAVMIGMRGHYNVTGFGQVATWETGFPMAIDFSRGYPYYNPGETGANDLLVREEPDAAIIAAADAGAHFPQKAVRHLARIPVIQIDPYANPTTEIADVVIPAAVVGIEAEGTAYRMDAISLRMKKLIDTEFKTDEEIVKDLTAKVREMKRGV	not soluble
MSLKSVIIGTAGHIDHGKTSLIKALNGFEGDSLKEEQERQITINLSFSNLKLKDKNISFIDVPGHKDLVKTMVSGAFGFSVCLFVVDINEGLKEQSLEHLEILKILDIKNIILVLSKCDLCENIEQKSVEILEELKNLDYPILKVFHTSIKNNQGIEELKNYLYTIENKENDEELIFHYYIDRVFSLKGIGTVVTGSLNEGSITLNEKIICLDTQKELIVKNIQNHDTNLEQIKACNRVALSLNCDYKELKKGYLLSKKGYFKAFKECDALVKAKNLQNSKMIFCVGSRQIECKINILKKLENDEFFVHFSFDKNVFLSFDEAFILLQNNRVIGGGKVLNPLSEPLKKEQKNKFLMFLKNKDFKAAFSFLKDAHKYGFGLLSSYQRFKLSHQKALKLAKELNQVFVDEKNLNVYHLQSLEEIKNFIKFILEKNPYAMLSAHSLALRITWASENFCELGLKEMSNLLDFQNGIYFKKGIDFEKLQEKNNNQMYEILKKQGIKPEAPYNLYDFLELDREGHHHHHH	soluble
MSLHLNDQWVLCAPTDNFENKKEIFFTPQGAFGTGLHETTQDILKFIVEEDFEGKSLLDLGTGSGILSIAAGVKGASKIVAVDIRDVEDEVLLNASLNELENIEVVVGNVLHEEYKLNEKFDWIFINIGGEETAMFMDFIEEHIEKTGKLLVSGLVEWSFDWVKEKVENKGFKLNKKFQTNEWCTAIFSKEGHHHHHH	soluble
MDNLLAQKKPINILLLGTDTGAMGRSWKGRTDTIMMMAINPKTNSTSIVSIPRDSNAIFPDFPQYGVTKINSAYTLGGVGETVKTLDKYYSVPIDGYIMINMGGLKKAIDQVGGIDVTSPLTFDNMGYHFQEGKTYHMDGKKALAFAQLRHGDPRQDYGRQDRDRRVVMALLKKSISPTTLLNTKFLNSISSEMQTDLTMNQMYKIGMDYRHATDNLSQDHAQGVSKQTQNPKFGTMEIEVVSRQERQRVSDKLRAALGLPKVRVAANSASYVMNQLEHHHHHH	soluble
MADHAHNLRATFGHGRPIGVITRGTTGFNRLRRCDRWMAHHPLIQQALRRTSDPIALDVGYGASFTTTVEWARWLRTMRDDVRVTGLEIDPERVLPPRDGVTFELGGFELAGYQPTLVRAFNVLRQYDVDQVMDAWEMVTSRLQPGGFFVEGTCDELGRRSTWVLLNHAGPQSLTLCWDPFDVERPSDIAERLPKILIHRNVAGEKIHDVLLRTDEAWDRCAPWASYGPRVRWRAARAMLMDMGIPMSIIRRPVRDNQLTVPWSIVDPTT	not soluble
